Values of other authors, collected in PMC6826157.

Legend:
[1] = biological target: Asp137 (UniProt position 137, SNYFFDTTQGH); test: kinetics; conditions: V/K profile with the natural substrate L-tryptophan (free enzyme plus substrate)
[2] = biological target: Lys270 (UniProt position 270, AMSAKKDAMVP); test: kinetics; conditions: V/K profile with the natural substrate L-tryptophan (free enzyme plus substrate)

Tryptophan indole-lyase (tryptophanase, TIL, EC 4.1.99.1) (Escherichia coli)
pKa [1]: 6.0 ± 0.2 | pKa [2]: 7.6 ± 0.09
